Measurements taken from US20260232826A1, “ANTIBODY-DRUG CONJUGATES AND THEIR USES” (Mablink Bioscience, priority 2022, published 2026).
Entries after “also recorded” stand apart in the source; their conditions may differ.

How the values were obtained:
[1] = system: FRα positive cancerous cell lines; assay: In vitro cytotoxicity assay (MTT) on FRα+ cancerous cell lines; assay type: cell-based, Human; settings: 144 hours incubation, several FRα positive cell lines (FIG. 3)
Procedure: In vitro cytotoxicity of compound exatecan mesylate was assessed on several FRα positive cancerous cell lines. Cells were plated in 96-well plates at an appropriate density depending on the cell line (between 1000 and 10000 cells/well in 100 μL of appropriate culture media) and incubated at 37° C. for 24 hours. Serial dilutions of the tested compound previously dissolved in culture media (50 μL) were added, and incubation was carried at 37° C. out for 144 hours. MTT (5 mg/mL, 20 μL, Sigma-Aldrich) was added into the wells, and incubation was continued for 1 to 2 hours at 37° C. Culture media was then carefully removed, and well content was homogeneously dissolved with acidified isopropanol. Absorbance values were measured on a Multiskan™ Sky microplate reader (Thermo Scientific) using a wavelength of 570 nm (with a reference wavelength of 690 nm). The IC50 concentration values compared to untreated control cells were determined using inhibition dose response curve fitting (GraphPad Prism 9).

[2] = biological target: T1, recombinant human FRα (Homo sapiens, UniProt P15328); assay: Recombinant FRα-binding affinity by ELISA (human); settings: FIG. 4A/4B
T1 construct: purchased Sino Biological 11241-H08H
T1 sequence (P15328 25-234): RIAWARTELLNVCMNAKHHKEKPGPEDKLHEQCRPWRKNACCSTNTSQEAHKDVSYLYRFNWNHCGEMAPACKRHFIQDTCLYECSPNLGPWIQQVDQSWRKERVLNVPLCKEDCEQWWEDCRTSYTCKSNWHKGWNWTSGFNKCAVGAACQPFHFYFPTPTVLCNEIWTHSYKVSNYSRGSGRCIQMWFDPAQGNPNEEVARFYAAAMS
Procedure: Sandwich ELISA assays are performed using 96-well high-binding ELISA plates (Corning Inc., New York, NY, USA, Cat #3590). Plates are coated using 100 µL/well of recombinant human FRα protein (Sino Biological cat #11241-H08H) in PBS (pH 7.4) at 2 μg/mL and incubated overnight at 4° C. After 2 washes with PBS-T (PBS+0.05% Tween-20), the plates are blocked with 200 μL/well of incubation buffer (PBS-T+0.1% BSA) for 1 h at room temperature. The plates are washed 4 times with PBS-T, and 100 μL of a threefold dilution series of tested compound (antibody or antibody-drug conjugate) is added. Then, the plates are incubated for 2 h at room temperature in the dark. After 5 washes with PBS-T, plates are incubated 1 h at room temperature with 100 μL/well of a goat anti-human IgG (H+L) HRP conjugated antibody (Jackson Immunoresearch cat #109-035-088), previously diluted 1:250000 in incubation buffer. After 5 washes with PBS-T, TMB substrate solution (Thermo-Fisher cat #N301) is added. Peroxidase activity is stopped with 0.18M H2SO4 and absorbance is read at 450 nm (reference wavelength 650 nm) using a Thermo Scientific MultiSkan EX microplate reader. Sigmoidal fittings were performed using GraphPad Prism 9 software.
Sandwich ELISA assays were performed using 96-well high-binding ELISA plates (Corning Inc., New York, NY, USA, Cat #3590). Plates were coated using 100 μL/well of recombinant human FRα protein (Sino Biological cat #11241-H08H); recombinant cynomolgus FRα protein (Sino Biological cat #90950-C08H); recombinant rat FRα protein (Sino Biological cat #81073-R08H) or recombinant mouse FRα protein (Sino Biological cat #50573-M08H) in PBS (pH 7.4) at 2 μg/mL and incubated overnight at 4° C. After 2 washes with PBS-T (PBS+0.05% Tween-20), the plates were blocked with 200 μL/well of incubation buffer (PBS-T+0.1% BSA) for 1 h at room temperature. […] Peroxidase activity was stopped with 0.18M H2SO4 and absorbance was read at 450 nm (reference wavelength 650 nm) using a Thermo Scientific MultiSkan EX microplate reader. […]

[3] = biological target: T2, extracellular human FRα expressed on cancerous cell lines (Homo sapiens, UniProt P15328); assay: Cell-binding affinity by flow cytometry; settings: APC-labelled antibody or ADC, flow cytometry (FIG. 6)
T2 construct: endogenous in cells; host or cells: human cancer cell lines (ATCC/DSMZ/ECACC); BT-474 as FRα-negative control
T2 sequence (P15328 25-234): as above
Procedure: Antibody or ADC binding to extracellular human FRα expressed on cancerous cell lines is assessed by flow cytometry. Tested antibody or ADC is conjugated to APC fluorophore using LYNX Rapid APC Antibody Conjugation Kit according to the manufacturer's protocol (Bio-Rad, Cat #LNK032APC). Into 500000 cells (suspended in 100 μL of PBS in flow cytometry plastic tubes) is added 5 μL of a 10 μg/mL solution of tested APC-labelled antibody or ADC. Cells are incubated 20 min in the dark, are washed with PBS 3 times by centrifugation and are re-suspended in 200 μL of PBS for analysis. Flow cytometry is performed using a BD Fortessa flow cytometer controlled by BD FACSDiva software (BD Biosciences) and data are analyzed using FlowJo software (BD Bioscience).
Antibody or ADC binding to extracellular human FRα expressed on cancerous cell lines was assessed by flow cytometry. Tested antibody or ADC was conjugated to APC fluorophore using LYNX Rapid APC Antibody Conjugation Kit according to the manufacturer's protocol (Bio-Rad, Cat #LNK032APC). Into 500000 cells (suspended in 100 μL of PBS in flow cytometry plastic tubes) was added 5 μL of a 10 μg/mL solution of tested APC-labelled antibody or ADC. Cells were incubated 20 min in the dark, were washed with PBS 3 times by centrifugation and were re-suspended in 200 μL of PBS for analysis. Flow cytometry was performed using a BD Fortessa flow cytometer controlled by BD FACSDiva software (BD Biosciences) and data were analyzed using FlowJo software (BD Bioscience).

[4] = biological target: T1, recombinant human FRα; assay: Human FRα-binding affinity by SPR (Biacore); settings: Biacore T200, 25° C. (FIG. 5)
Procedure: Surface plasmon resonance (SPR) experiments are performed on a Biacore T200 apparatus, at 25° C. Tested antibody or ADC are captured at low density (300-500 RU) on a CM5 series S sensorchip, beforehand functionalized with a Human Antibody Capture kit (Cytiva cat #BR100839). A functionalized surface/flow cell treated similarly but omitting ligand is used as reference. To measure kinetics rates and affinities, recombinant human FRα (Sino Biological cat #11241-H08H) analyte sample is injected in duplicates at 5 concentrations (0.5, 1, 2, 4, 8 nM) in series using single cycle kinetics strategy and at constant […] flow rate of running buffer (HBS-EP+, Cytiva cat #BR100669) with contact pulses of 300 sec. The dissociation phase is measured by injection of running buffer for 900 sec. Between duplicates, surfaces/flow cells are regenerated with 3M MgCl2 to remove both analyte and ligand, and fresh ligand capture are done using identical conditions. The data analysis is performed using the Biacore Evaluation software after subtraction of reference surface and analyte zero-concentration signals. […]
Surface plasmon resonance (SPR) experiments were performed on a Biacore T200 apparatus, at 25° C. […] The dissociation phase was measured by injection of running buffer for 900 sec. […]

Substance	IC50's in vitro potencies [1]	recombinant human FRα binding (ELISA), in words [2]	human FRα cell binding [3]	recombinant human FRα binding (SPR), in words [4]
Exatecan Mesylate	sub-nM to low-nM	–	–	–
farletuzumab-LALA: Fc-silent farletuzumab with L234A and L235A mutations, heavy chain SEQ ID NO:9, light chain SEQ ID NO:10	–	No loss of binding	Comparable human FRα cell binding	No loss of binding
farletuzumab: anti-FRα IgG1 antibody, heavy chain SEQ ID NO:11, light chain SEQ ID NO:10	–	No loss of binding	Comparable human FRα cell binding; also recorded: binding affinity appeared identical	No loss of binding
mirvetuximab: humanized anti-FRα antibody, heavy chain SEQ ID NO:16, light chain SEQ ID NO:17	–	No significant loss of binding	binding affinity appeared identical	–
